# According to patent US20070065890A1, “Method for promoting formation of facultative heterochromatin” (priority 2005, published 2007):
# Assays:
# [1] = molecular target: T1, recombinant human H1b (Homo sapiens, UniProt P10412); assay: In vitro deacetylation of p300-acetylated recombinant H1b by SirT proteins; assay type: biochemical; details: equal NAD+-exchange units measured using acetylated BSA as substrate
# T1 construct: Human histone H1b and H1° were inserted into HA-Pet30c; HA (N); made in house; host or cells: E. coli BL21 (DE3)
# Description: (§1) Detection of H1 acetylation was performed by using 4 μg of histone H1 (Upstate Biotechnology, Inc., Lake Placid, N.Y.) as an acetylated substrate for SirT1 in the NER. Deacetylation was determined by first performing a deacetylation assay using 20 and 40 μg of H1 and 6 nmol of SirT1. H1 was then isolated in the supernatant of chilled 5% perchloric acid, TCA precipitated (Albig, et al. (1998) FEBS Lett. 435:245-250), and resuspended in buffer C containing 100 mM KCl. Deacetylated H1 was then used in a subsequent NER. In vitro acetylation of H1 or recombinant H1b expressed in E. coli was carried out by incubating 10 μg H1 with 2 nmol baculovirus-generated p300 in the presence of 0.875 μCi [H^3]-Ac-CoA (Amersham, Piscataway, N.J.) in HAT buffer (75 mM Tris-HCl [pH 8.8], 135 mM NaCl). Deacetylation was carried out with the specified enzyme as above using 1 μg of the labeled Hi. […] Counts were then determined by liquid scintillation (PERKINELMER, Wellesley, Mass.) . […] In vivo H1 acetylation was analyzed by treating 293 cells for 18 hours in media containing 5 mM nicotinamide. H1 was purified as described (Albig, et al. (1998) supra) and analyzed in the NER. […]
# (§2) SirT1 activity on histone H1 was directly tested in vitro. […] The same result was observed using recombinant human H1b; however, specificity was also scored in this assay using different SirT proteins.
# [2] = system: histone H1; assay: In vitro deacetylation of p300-acetylated [3H]-labelled H1; assay type: biochemical; details: H1 acetylated by p300-HAT with [3H]-AcCoA, incubated with different amounts of SirT1; plateau reached
# Description: as §1, §2
# T1 sequence (P10412 2-219): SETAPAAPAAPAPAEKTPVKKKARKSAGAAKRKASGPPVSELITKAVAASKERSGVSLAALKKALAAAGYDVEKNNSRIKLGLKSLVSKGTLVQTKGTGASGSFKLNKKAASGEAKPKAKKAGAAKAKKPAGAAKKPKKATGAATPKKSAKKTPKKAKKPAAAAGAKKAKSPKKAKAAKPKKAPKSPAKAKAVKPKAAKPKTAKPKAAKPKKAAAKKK
substance,measurement,setting,value
"SirT1: Human sirtuin type 1 protein, SEQ ID NO:1; purified recombinant, baculovirus-expressed",H1b deacetylation,[1],H1b deacetylation is specific for SirT1
same,total label in H1 released,[2],up to 70%
